Biological target: T1, GST-FKH-FoxA2 (Rattus norvegicus (rat; cloned from genomic DNA)) (UniProt P32182)
T1 sequence (P32182 145-290, looked up): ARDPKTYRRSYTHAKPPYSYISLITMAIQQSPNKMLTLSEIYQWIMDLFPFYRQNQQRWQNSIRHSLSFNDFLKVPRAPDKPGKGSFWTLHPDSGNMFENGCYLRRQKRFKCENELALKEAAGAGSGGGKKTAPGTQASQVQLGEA
Test: competition EMSA
Conditions: 25 mM HEPES pH 7.6, 150 mM KCl, 0.2 mM EDTA, 0.2 mM EGTA, 10% glycerol, 1 mM DTT, 3 ug protein, 1 ng 32P-TTR probe, 2/5/20 ng competitor, on ice 15 min, 4% …

“CAGTAAACTCTGCTGTGTGTACAGATAACATTAC (double strand) [non-site chr7:119551431]” showed a binding signal (EMSA score (TTR=1)) of 0.22.

For “CAGTAAGCCTCGCGTTGTTTGGTTAAGGGGCAGG (double strand) [FoxA BS chr1:7078701]”, the binding signal (EMSA score (TTR=1)) was 0.83.

For “CAGTAAGGTTATTATTATTTGTTTTATTTTGTTT (double strand) [FoxA BS chr10:75378448]”, the binding signal (EMSA score (TTR=1)) was 0.83.

For “CAGTACCCCAGGATTTGTGGGCTGTGGGTGTGGC (double strand) [non-site chr7:44970992]”, the binding signal (EMSA score (TTR=1)) was -0.11.

With “CAGTACTAGATGTTTACTTTAAGGGACCAG (double strand) [FoxA BS chr9:107745824]” the binding signal (EMSA score (TTR=1)) was 1.3.

“CAGTACTCATCCTGCTATTGACAGTCGGATATAT (double strand) [FoxA BS chr7:29476412]” gave a binding signal (EMSA score (TTR=1)) of 0.4.

For “CAGTAGAGGTCTTCCTCTTTGCCCATGTTGTGGG (double strand) [non-site chr7:26648074]”, the binding signal (EMSA score (TTR=1)) was -0.16.

“CAGTAGCCCCTCCTGTGTTGTCTTCCAGTAGATG (double strand) [non-site chr7:59095749]” showed a binding signal (EMSA score (TTR=1)) of 0.09.

For “CAGTAGCGCCTGCAGTTTACCTTGGCTCCG (double strand) [non-site chr9:102865800]”, the binding signal (EMSA score (TTR=1)) was 0.13.

In the case of “CAGTAGGGTCAAGGTAGTTTGCATATCTTCCAAC (double strand) [non-site chr7:83767529]”, the binding signal (EMSA score (TTR=1)) is reported as 0.24.

Sequence “CAGTAGGTTTCTCTATTGACTCTATTGCCT (double strand) [FoxA BS chr11:45798706]” has a binding signal (EMSA score (TTR=1)) of 0.49.

Sequence “CAGTATGTGTTGTTGTTGACTTTAAGGTCG (double strand) [FoxA BS chr9:107420590]” has a binding signal (EMSA score (TTR=1)) of 0.93.

Work on “CAGTATTGGACATTGTTTATTTGTTTTGCC (double strand) [FoxA BS chr1:141375708]” yielded a binding signal (EMSA score (TTR=1)) of 1.21.

Sequence “CAGTATTTATTTGTATGTATTTTGAGACAG (double strand) [FoxA BS chr3:116606401]” has a binding signal (EMSA score (TTR=1)) of 0.38.

“CAGTCACCGTTGTTTGTTCTGTGACAAATA (double strand) [FoxA BS chr19:56926814]” showed a binding signal (EMSA score (TTR=1)) of 0.68.

Sequence “CAGTCAGCTCCCATGTTTACCAGGCCTTGA (double strand) [FoxA BS chr6:121311851]” has a binding signal (EMSA score (TTR=1)) of 0.57.

Work on “CAGTCAGTGGAAGGCTGTTAACTGTGCCTGCTGC (double strand) [non-site chr13:40870570]” yielded a binding signal (EMSA score (TTR=1)) of -0.02.

With “CAGTCATATAGGCTCTGTTTGAACATTAATTAAC (double strand) [FoxA BS chr15:82621996 b]” the binding signal (EMSA score (TTR=1)) was 0.31.

With “CAGTCCAGACTCGCTTGTTGACAGAGCTCAGGGC (double strand) [FoxA BS chr12:77880754 a]” the binding signal (EMSA score (TTR=1)) was 0.38.

“CAGTCCAGGGGACCTGTTTACCTTACATAG (double strand) [FoxA BS chr17:45901267]” gave a binding signal (EMSA score (TTR=1)) of 0.7.

“CAGTCCCGGGCCTGTTTGCTTTTCCATACA (double strand) [FoxA BS chr12:8003233]” was tested, and the binding signal (EMSA score (TTR=1)) was 0.5.

Work on “CAGTCCCTATCTGTGTTTACAGCTGGTTTC (double strand) [non-site chr5:139643316]” yielded a binding signal (EMSA score (TTR=1)) of 0.18.

For “CAGTCCCTTCCCTTATTTACATTCCCGAGA (double strand) [FoxA BS chr7:140707466 a]”, the binding signal (EMSA score (TTR=1)) was 1.13.

Work on “CAGTCCGGGATTGGCTGTTTGTAATCTGCTCGAC (double strand) [non-site chr17:74394072]” yielded a binding signal (EMSA score (TTR=1)) of 0.

“CAGTCCTGGCTTTCCTGCTTACCCAACAACCGCT (double strand) [non-site chr3:94456673 b]” was tested, and the binding signal (EMSA score (TTR=1)) was 0.07.

“CAGTCCTTGTGCTTATTTACATACCCCGCC (double strand) [FoxA BS chr19:12527263]” gave a binding signal (EMSA score (TTR=1)) of 0.84.

Work on “CAGTCGTCTTCCCTGTGTGCTTACTATGCA (double strand) [non-site chr12:85340663 b]” yielded a binding signal (EMSA score (TTR=1)) of 0.07.

“CAGTCGTGACCTTTGTTGACTCGCGTCAGT (double strand) [FoxA BS chrX:17319260]” was tested, and the binding signal (EMSA score (TTR=1)) was 0.53.

“CAGTCTCCCGGCCGGGGTTGACTCTCTCTGAGCT (double strand) [non-site chr8:87127281]” showed a binding signal (EMSA score (TTR=1)) of 0.11.

For “CAGTCTCCTCCATTGTGTACACTCCCCCTC (double strand) [FoxA BS chr7:44717527]”, the binding signal (EMSA score (TTR=1)) was 0.49.

“CAGTCTCTGAGTGACTGTTTTCTGTAATACCCAA (double strand) [non-site chr15:91019750]” gave a binding signal (EMSA score (TTR=1)) of 0.01.

Sequence “CAGTCTCTGCCCCTCTATTGGTCTAGCTCTCCAA (double strand) [non-site chr16:22806861]” has a binding signal (EMSA score (TTR=1)) of 0.06.

For “CAGTCTGAGAAACCTTGTTGATCTCAGGCAACCC (double strand) [non-site chr8:13025407 a]”, the binding signal (EMSA score (TTR=1)) was 0.07.

“CAGTCTGCCCTGCTGTTTACCAGCTGGAGA (double strand) [FoxA BS chr3:94456673 a]” was tested, and the binding signal (EMSA score (TTR=1)) was 0.29.

“CAGTCTGCGGCGCCAGATTTACACAGCGCGAGGA (double strand) [FoxA BS chr7:15773405]” was tested, and the binding signal (EMSA score (TTR=1)) was 0.25.

Work on “CAGTCTTGAGGCCTGTTTACCGTCCAGTTA (double strand) [FoxA BS chr19:44039737]” yielded a binding signal (EMSA score (TTR=1)) of 0.43.

In the case of “CAGTGACAACCAATGTTGACTTAAAACCTT (double strand) [FoxA BS chr4:61847631]”, the binding signal (EMSA score (TTR=1)) is reported as 0.82.

For “CAGTGAGGCGGGGTGTTGACTCTTACGCCA (double strand) [FoxA BS chr8:112454327]”, the binding signal (EMSA score (TTR=1)) was 0.33.

Work on “CAGTGCAACAAGTTGTTTACACTCTTCATT (double strand) [FoxA BS chr6:34792983 a]” yielded a binding signal (EMSA score (TTR=1)) of 0.82.

Work on “CAGTGCGGCGCTGTGTTTACCTTCCGGGAG (double strand) [FoxA BS chr11:85168610]” yielded a binding signal (EMSA score (TTR=1)) of 1.08.

“CAGTGCGTGCATTGGTGTTCGCTCAGAGCGGGAC (double strand) [non-site chr6:5446118]” gave a binding signal (EMSA score (TTR=1)) of 0.

“CAGTGCTAGATCCAGTTTTTACACAGAAAGTTTC (double strand) [non-site chr8:13025407 b]” gave a binding signal (EMSA score (TTR=1)) of -0.06.

Work on “CAGTGGAACCTCTGATGTTGACTTTCCCTTGATT (double strand) [FoxA BS chr15:82621996 a]” yielded a binding signal (EMSA score (TTR=1)) of 0.38.

For “CAGTGGACCTTATTTACTTTCCTTAGCAAG (double strand) [FoxA BS chr12:85340663 a]”, the binding signal (EMSA score (TTR=1)) was 0.99.

Work on “CAGTGGATGCCTCTATTTGTTTAATCACAG (double strand) [FoxA BS chr9:122199103]” yielded a binding signal (EMSA score (TTR=1)) of 1.1.

Sequence “CAGTGGCATCCGACTGATTTACTGAGCTGGTTCC (double strand) [non-site chr7:140707466 b]” has a binding signal (EMSA score (TTR=1)) of 0.

For “CAGTGGGACCTGTCTTGTTGACCCATCACGTCAC (double strand) [FoxA BS chr17:32151628]”, the binding signal (EMSA score (TTR=1)) was 0.47.

“CAGTGGTCACCCTTTGGTTTACCTTTTAGGAACA (double strand) [FoxA BS chr8:96902217 a]” was tested, and the binding signal (EMSA score (TTR=1)) was 0.52.

With “CAGTGTGAGTGTGTGTGTGTATACAGCGTGAGTC (double strand) [FoxA BS chr15:59478046]” the binding signal (EMSA score (TTR=1)) was 0.26.

With “CAGTGTGTTCCTATGTGTACACAGTACTTG (double strand) [FoxA BS chr4:3604382]” the binding signal (EMSA score (TTR=1)) was 0.91.

For “CAGTGTTCAGAGCTGTTTACTTGAACGCGA (double strand) [FoxA BS chr6:34792983 b]”, the binding signal (EMSA score (TTR=1)) was 0.53.

“CAGTGTTGCCCGTCGTATTTGTATATGGTTTCCT (double strand) [FoxA BS chr10:79387812]” gave a binding signal (EMSA score (TTR=1)) of 0.58.

In the case of “CAGTTATCAATGTTTGTTTACCTTGTGGCT (double strand) [FoxA BS chrX:6878436]”, the binding signal (EMSA score (TTR=1)) is reported as 1.65.

For “CAGTTATCTGTACTTTATTTTCAAACGCTATAAT (double strand) [non-site chr8:96902217 b]”, the binding signal (EMSA score (TTR=1)) was -0.01.

Work on “CAGTTCACCTGAGGGTGTGTACACAGTCTCTCAG (double strand) [FoxA BS chr7:100410756]” yielded a binding signal (EMSA score (TTR=1)) of 0.56.

“CAGTTCATGCCACAGTTTACTCTGGTCCCT (double strand) [non-site chr1:154160175]” gave a binding signal (EMSA score (TTR=1)) of 0.24.

With “CAGTTGCCTTTCTGTTTGTTGTTTTGGAGG (double strand) [non-site chr5:30822343]” the binding signal (EMSA score (TTR=1)) was 0.21.

For “CAGTTGCGCCCCGGGTGTTGGCAGCGAGAAGTGG (double strand) [non-site chr12:77880754 b]”, the binding signal (EMSA score (TTR=1)) was 0.03.

Work on “CAGTTGCTGGCCTAATGTGGACACAGGGGGTTCC (double strand) [FoxA BS chr3:83135377]” yielded a binding signal (EMSA score (TTR=1)) of 0.64.

“CAGTTGGAGTAGTTATTTACCTTAGCAGCC (double strand) [FoxA BS chr16:13816438]” was tested, and the binding signal (EMSA score (TTR=1)) was 0.81.

“CAGTTGGCCCCAGTATTTACATTTCTAACA (double strand) [FoxA BS chr15:54962925]” was tested, and the binding signal (EMSA score (TTR=1)) was 0.92.

“CAGTTGGGCATATTTGCTCAGAACCTGGTA (double strand) [FoxA BS chr1:159362347]” was tested, and the binding signal (EMSA score (TTR=1)) was 0.37.

“CAGTTTCAAAGCTTGTTGACGGAGAGAAAT (double strand) [non-site chr17:25500984]” gave a binding signal (EMSA score (TTR=1)) of 0.2.

In the case of “CAGTTTGGGTCAATATTTATTCTTTCATTT (double strand) [FoxA BS chr19:38189585]”, the binding signal (EMSA score (TTR=1)) is reported as 0.48.

“CGATCAAAACTAGGTCAAAGGTCA (double strand) [PPAR]” showed a binding signal (EMSA score (TTR=1)) (negative control) of 0.
